Measurements published in the supplement of paper PMC9233669.
Variants at the floor of the assay were thinned out.

Assays:
biotinyl-Phe-oxazolone = test: self-aminoacylation, catalytic enhancement (BFO) (fold over background); higher = more active; k-Seq, kA / k0A0; sequences stand for … in GGGAAUGGAUCCACAUCUACGAAUUC…UUCACUGCAGACUUGACGAAGCUG
Summary of the method: (§1)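 Working in 50 μL HEPES/NaCl/KCl/MgCl2/CaCl2 buffer with 5% acetonitrile at pH 6.9–7.0, mutagenized RNA pools (0.43 μM; 21-nt variable region) were reacted with 2–1250 μM of each biotinyl-aminoacyl-oxazolone for 90 minutes at room temperature. Streptavidin capture followed, with quantification by triplicate qPCR and Illumina sequencing. Catalytic enhancement is reported as median kA over the uncatalyzed rate, the low-activity peak of a bimodal Gaussian fit to the data.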

biotinyl-Ile-oxazolone = test: self-aminoacylation, catalytic enhancement (BIO) (fold over background); higher = more active; k-Seq, kA / k0A0; sequences stand for … in GGGAAUGGAUCCACAUCUACGAAUUC…UUCACUGCAGACUUGACGAAGCUG
Summary of the method: as §1

biotinyl-Met-oxazolone = test: self-aminoacylation, catalytic enhancement (BMO) (fold over background); higher = more active; k-Seq, kA / k0A0; sequences stand for … in GGGAAUGGAUCCACAUCUACGAAUUC…UUCACUGCAGACUUGACGAAGCUG
Summary of the method: as §1

biotinyl-Val-oxazolone = test: self-aminoacylation, catalytic enhancement (BVO) (fold over background); higher = more active; k-Seq, kA / k0A0; sequences stand for … in GGGAAUGGAUCCACAUCUACGAAUUC…UUCACUGCAGACUUGACGAAGCUG
Summary of the method: as §1

biotinyl-Leu-oxazolone = test: self-aminoacylation, catalytic enhancement (BLO) (fold over background); higher = more active; k-Seq, kA / k0A0; sequences stand for … in GGGAAUGGAUCCACAUCUACGAAUUC…UUCACUGCAGACUUGACGAAGCUG
Summary of the method: as §1

biotinyl-Trp-oxazolone = test: self-aminoacylation, catalytic enhancement (BWO) (fold over background); higher = more active; k-Seq, kA / k0A0; sequences stand for … in GGGAAUGGAUCCACAUCUACGAAUUC…UUCACUGCAGACUUGACGAAGCUG
Summary of the method: as §1

| Sequence | self-aminoacylation (biotinyl-Phe-oxazolone) | self-aminoacylation (biotinyl-Ile-oxazolone) | self-aminoacylation (biotinyl-Met-oxazolone) | self-aminoacylation (biotinyl-Val-oxazolone) | self-aminoacylation (biotinyl-Leu-oxazolone) | self-aminoacylation (biotinyl-Trp-oxazolone) |
| --- | --- | --- | --- | --- | --- | --- |
| AAAUUUGCUAAUAGUCCCAAG [Fam3.1 aminoacylation ribozyme variant] | 1.68 | 1.24 | 0.644 | 1.03 | 0.923 | 0.979 |
| AUUCACCUAGGUUAACGGGUG [Fam2.2 aminoacylation ribozyme variant] | 24.8 | 2 | 2.55 | 2.1 | 3.22 | 2.83 |
| UUUCACCUGGGUCAUCGGGUG [Fam2.2 aminoacylation ribozyme variant] | 24.2 | 3.99 | 5.12 | 5.26 | 4.95 | 6.75 |
| CCACACUUCACGCCAUCGGUC [Fam1B.1 aminoacylation ribozyme variant] | 1.28 | 1.59 | 1.31 | 2.13 | 1.51 | 2.05 |
| AAGUUUGGUAAUAGUCGCAGG [Fam3.1 aminoacylation ribozyme variant] | 2.19 | 1.47 | 1.39 | 1.4 | 1.7 | 2.18 |
| CCAAACUUCAAACAAUCGGUC [Fam1B.1 aminoacylation ribozyme variant] | 86.6 | 1.35 | 1.53 | 1.52 | 2.21 | 42 |
| AUUCAACUAGGUCAGCGGGUG [Fam2.2 aminoacylation ribozyme variant] | 32.2 | 3.15 | 4.12 | 3.29 | 5.11 | 5.13 |
| AAGUUCGCUCAUAGUCGCAAG [Fam3.1 aminoacylation ribozyme variant] | 7.56 | 2.23 | 2.01 | 1.77 | 1.96 | 2.26 |
| AUGCCCCUGGUCAUCGAGUGA [Fam2.1 aminoacylation ribozyme variant] | 38.4 | 5.14 | 9.73 | 5.59 | 10.2 | 10 |
| AUCACCCUUGUCAUCGAGUGA [Fam2.1 aminoacylation ribozyme variant] | 59.7 | 4.65 | 9.48 | 4.91 | 10.1 | 10.7 |
| CCACACUUCAAGCAACCGGGC [Fam1B.1 aminoacylation ribozyme variant] | 3.1 | 2.77 |  | 3.18 | 3.43 | 4.79 |
| AUUCACCGAGCUCAUCGGGUG [Fam2.2 aminoacylation ribozyme variant] | 17.4 | 2.4 | 2.08 | 3.41 | 2.46 |  |
| CCACACUUCAGGCAAUCGCUC [Fam1B.1 aminoacylation ribozyme variant] | 17.5 | 2.5 |  | 2.04 | 2.71 |  |
| CCACACCUCAAGCAUUCGGUC [Fam1B.1 aminoacylation ribozyme variant] | 2.12 | 2.26 |  | 2.54 |  | 2.49 |
| AUUCACCUAGGUCAUCGCCUG [Fam2.2 aminoacylation ribozyme variant] | 8.71 | 2.01 |  | 2.44 | 3.01 | 2.11 |
| CCAAACUUCAAGCAAUCGGGC [Fam1B.1 aminoacylation ribozyme variant] |  | 2.08 | 2.17 | 2.26 |  | 2.01 |
| AACUUUGCUAAUAGUCGCACG [Fam3.1 aminoacylation ribozyme variant] | 3.22 | 2.49 |  | 2.05 | 2.15 | 3.12 |
| AAGCGUGCUAAUAGUCGCAAG [Fam3.1 aminoacylation ribozyme variant] | 4.08 | 2.02 | 2.62 | 2.05 |  | 2.33 |
| CUUCACCUAGUUCAUCGGGUG [Fam2.2 aminoacylation ribozyme variant] |  | 2.15 | 2.54 | 2.27 | 2.87 | 2.53 |
| AAAUUUUCUAAUAGUCGCAAG [Fam3.1 aminoacylation ribozyme variant] | 2.42 | 2.15 |  | 2.11 | 2.46 |  |
| AUUCUCCUAGGUCAUCGGGGG [Fam2.2 aminoacylation ribozyme variant] |  | 2.7 | 3.48 | 3.29 | 3.88 | 3 |
| GAGUUGGCUAAUAGUCGCAAG [Fam3.1 aminoacylation ribozyme variant] | 2.86 | 2.02 | 2.04 | 2.22 |  | 3.02 |
| AUUACCCUGGUGAGCGAGUGA [Fam2.1 aminoacylation ribozyme variant] | 22.2 | 2.4 | 3.94 |  | 3.8 | 3.97 |
| AUUCACCUAGGACAUCGGGUA [Fam2.2 aminoacylation ribozyme variant] | 7.17 | 2.02 | 2.72 |  | 2.63 | 2.09 |
| CCAGACUUCAAGCAUUCGGUC [Fam1B.1 aminoacylation ribozyme variant] |  | 2.03 | 2.12 | 2.16 | 2.08 |  |
